Laboratory results: US20250172552A1 (ANN AND ROBERT H LURIE CHILDREN S HOSPITAL OF CHICAGO, published 2025)
Read-outs that look alike come from different tables or passages of the source.

T1: KDpeptide3
T1 construct: Synthetic peptide (Anaspec) coated on ELISA plates at 800 ng per well; also the base peptide of substitution scans; also called Kdpep3; KD3
T1 peptide: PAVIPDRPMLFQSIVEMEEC

T2: KDpeptide2
T2 construct: Synthetic peptide (Anaspec) coated on ELISA plates at 800 ng per well
T2 peptide: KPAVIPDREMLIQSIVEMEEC


Experiments:
KDpeptide3 [1] = target: T1, KDpeptide3; test: ELISA on coated synthetic peptide
KDpeptide2 [2] = target: T2, KDpeptide2; test: ELISA on coated synthetic peptide
KDpeptide3 [3] = target: T1, KDpeptide3; test: ELISA on coated synthetic peptide
KDpeptide2 [4] = target: T2, KDpeptide2; test: ELISA on coated synthetic peptides, direct comparison

Row | Binder | binding result (KDpeptide3 [1]) | binding result (KDpeptide2 [2]) | binding result (KDpeptide3 [3]) | binding result (KDpeptide2 [4])
1 | KD9-2H6 (antibody, V domains shown) VH: EVQLVESGGGLVKPGESLRLSCVGSGFTLTNAWMIWVRQTSGKGLEWVGRIKSKIDGGAIDYGAPVKGRFTISRDDTKNTVYLQMNSLQTDDTGVYFCTTDRYSTGYYGMDDYWGQGTLVTV VL: SYELTQPPSVSVSPGQTATITCSGDKLGDKYSFWYQQKPGQSPVVVIYQDSKRPSGIPERFSGSNSGNTATLTISGTQAMDEADYYCQVWDTDSAVFGTGTRVTV | no binding | no binding |  | 
2 | KD12-2A10 (antibody, V domains shown) VH: EVQLVESGGGLVKPGGSLRLSCAASGFTFINAWMNWVRQAPGKGLEWVGLIKSKTDGGTIDYAAPVKGRFTISRDDSEKMLYLQMDSLKTEDTAVYYCTTMYGWKDARDYWGQGTLVTV VL: EIVLTQSPGTLSLSPGERATLSCRASQSVSSNLAWYQQKPGQAPRVLIYGASSRATGIPDRFSGSRSGTDFTLTISRLEPEDFAVYYCQRYDNSPRTFGQGTKVEIK |  |  | binds | 
3 | KD10-1G3 (antibody, V domains shown) VH: EVQLVESGGGLVQPGGSLKLSCAASGFSFSGAAMHWVRQSSGRGLEWLGRIRSKTNDYATAYAESLHGRFTISRDDAKNTAYLQMNRLKSEDTAIYYCTTVLSKGDHAVWLGPWGPGTLVTV VL: QPVLTQPPSSSASPGESARLTCTLPSDISVAASDIYWYQQKAGSPPNFLLYDPSDSHKGQDSGVPSRFSGSRDGSANSGFLLISGVQSEDEADYYCMVWPPNTVGVVFGGGTTLTV |  |  | binds | binds
4 | KD1-2B1 (antibody, V domains shown) VH: EVQLVESGGGLVQPGGSLRLSCAASGFTFSSYWMHWVRQAPGKGLVWVSRINNDGSSTGYADSVEGRFTISRDNAKNTLYLQINSLRAEDTAVYYCARQDGHYYYSMDVWGQGTTVTV VL: QSALTQPRSVSGSPGQSVTISCTGTSSDVGGYNYVSWYQQHPGKAPKLMIYDVSERPSGVPARFSGSKSGNTASLTISGLQAEDEADYYCCSYAGNFRWVFGGGTKLTVL |  |  | binds | binds
5 | KD3-1C10 (antibody, V domains shown) VH: EVQLVESGGGLVQPGGSLRLSCAASGFTFSNHWMHWVRQAPGKGLLWVSRIDTGGSTTNYADSVKGRFTISRDSAKNTVYLQMNSLRAEDTAVYYCARGGLFYYGMDVWGQGTTVTV VL: EIVLTQSPGTLSLSPGERATLSCRASQTSSSTSLAWYQQKRGQAPRLLIYGASRRATGIPDRFSGSGSGTDFTLTISRLEPEDFAVYYCQQFSGSPAYTFGQGTKVEIK |  |  | binds | 
6 | KD11-2E4 (antibody, V domains shown) VH: EVQLVESGGGVVQPGESLRLSCAASGVTFSSYWMHWVRQVPGKGLVWVARINIDGTSTTYADCVKGRFTISRDNAKNTLYLQMSSLRAEDTAVYYCATERGLLSGGRWHSSHFDYWGQGTLVTVS VL: DIQMTQSPSTLSASVGDRVTITCRASQSISSWLAWYQQKPGKAPKVLIYKTSSLESGVPSRFSGSGSGTEFTLTISSLQPDDFATYYCQQYDSSSLTWTFGQGTKVEIK |  |  | binds | binds
7 | KD9-2A4 (antibody, V domains shown) VH: LVESGGGLVQPGGSLRLSCAASGFTFSSYAMHWVRQAPGKGLEFASAISSDGGTTYYANSVKGRFTISRDNSKNTLYLQMGSLRDEDMAVYYCARDDLSTSWDLDYWGQGTLVTV VL: QSALTQPASVSGSPGQSITISCTGTSSDVGGYNYVSWYQQHPGKAPKLMIYDVSNRPSGVSNRFSGSKSGNTASLTISGLQAEDEADYYCSSYTISSTNVFGTGTKVTVL | no binding | no binding |  | 
8 | KD7-1B5 (antibody, V domains shown) VH: VQLVESGGGVVQPGRSLRLSCEASGFTFRSRAMHWVRQAPGKGLGWVAVIWYDGSNKYYADSVKGRFTISRDNSRNTLYLQMNSLRAEDTAVYYCARDLGSGFSLDYWGQGTLVTVS VL: QSVLTQPPSVSAAPGQKVTISCSGSSSNIGNNYVSWYQQLPGTAPKLLIYDNNKRPSGIPDRFSGSKSGTSATLGITGLQTGDEADYYCGTWDSSLSAEVFGGGTKLTVLG |  |  | binds | binds
9 | KD5-2D7 (antibody, V domains shown) VH: EVQLVESGGGLVQPGGSLGLSCAASGFTFSNYWMHWVRQAPGKGLVWVSRINSDGSDTSYADSVKGRFTISRDNAENTLYLHMSSLRAEDTAVYYCARELGYGDYGMDVWGKGTTVTVS VL: QSVLTQPPSASGTPGQRVTISCSGSSSNIGSHSVIWYQQLPGTAPKLLVYSDNQRPSGVPDRFSGSKSGTSASLAISGLQSEDEADYYCAAWDDSLNHLHVVFGGGTKLTVL |  |  | binds | binds
10 | KD2-1D10 (antibody, V domains shown) VH: EVQLVESGGGLIHPGGSLRLSCAASGFTFSSYWMHWVRQAPGKGLVWVSHIKSDGSNTIYADSVKGRFTISRDNAKNTLYLQMNSLRAEDTAVYYCGRGRSLTPRSAIDYWGQGTLVTV VL: QSALTQPPSASGSPGQSVTITCTGTSSDVGGYNYVSWYQQHPGKAPKLMIYEVSKRPSGVPDRFSGSKSGNTASLTVSGLQAEDEADYHCSSFAGDNNSPVFGGGTKLTVL |  |  | binds | binds
11 | KD12-1G7 (antibody, V domains shown) VH: EVQLVESGGGLVQPGGSLRLSCGASGFTVSGKYMTWARQAPEKGLEWVSAIYRGGGTYYADSVKGRFTISRDNSKNMLYLQMNSLRAEDTAVYYCGGSVMVSATDYWGQGTLVTV VL: not shown |  |  | binds | 
12 | KD1-1H8 (antibody, V domains shown) VH: EVQLVESGGGSVQPGGSLRLSCAASGFTFSNYWMHWVRQAPGKGLVWVSRLNIDGSNTFYADSVKGRFTISRDNAKNTLYLQMNSLRAEDTAVYYCVRGGSDSGDSVPFDLWGRGTLVTVS VL: EIVMTQSPATLSVSPGERATLSCRASQSVSSNLAWYQQNPGQAPRLLIYGASTRATGIPARFSGSGSGTEFTLTISSLQSEDFAVYYCQHYNNWPFTFGQGTKVEIK |  |  | binds | binds
13 | KD7-2H5 (antibody, V domains shown) VH: EVQLVESGGGLVQPGGSLRLSCAASGFTFSSYWMHWVRQAPGKGLVWVSRINSDGSSTSYADSVKGRFAISRDNAKNTLYLQMNSLRAEDTAVYYCARALGGWDIDYWGQGTLVTVS VL: not shown |  |  | binds | binds
14 | KD10-1A8 (antibody, V domains shown) VH: EVQLVESGGGLVQPGGSLRLSCAASGFTFSSYWMEWVRQAPGKGLVWVSHISSDGSVTRYVDSVKGRFTISRDNAKNTLYLQMNSLRAEDTGVYYCAKDLHWNALDVWGQGTMVTVS VL: DIVMTQTPLSLSVTPGQPASISCKSSQSLLHNDGKTFLHWYLQKPGQSPQLLIYEVSSRFSGVPDRFSGSGSGTDFTLKISRVEAEDVGVYYCMQGIHLPPTFGGGTKVEIKR |  |  | binds | 
